Assay results from publication PMC8126939, “The TBC1D31/praja2 complex controls primary ciliogenesis through PKA‐directed OFD1 ubiquitylation” (The EMBO Journal, 2021).
Changes are numbered by the printed parent chain. Numbers in names are those of the source. One block for each binder: values may come before it.

Columns and labels:
GST-praja2_(530–570) [1] = biological target: T1, GST-praja2_(530–570) (human, UniProt O43164 530-570, fluorescent dye on primary amines (NHS-ester labelling)); test: MST; Monolith NT 115; GST-praja2 fragments labelled with NHS-ester dye, TBC1D31 peptides titrated (16-point 1:1 dilution); 25°C, 20 mM NaP, 200 mM NaCl, 1 mM DTT, 0.05% Tween-20, pH 7.4; conditions: both partners purified
T1 construct: praja2 (PJA2), human, residues 530-570; The results call P1-P3 synthetic peptides; the methods describe recombinant GST fusions; also called P1; source: recombinant, purified (GST Trap, Superdex 75 gel filtration)
T1 chain (looked up): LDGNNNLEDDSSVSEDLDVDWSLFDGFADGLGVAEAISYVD

GST-praja2_(550–610) = biological target: T2, GST-praja2_(550–610) (human, UniProt O43164 550-610, fluorescent dye on primary amines (NHS-ester labelling)); test: as above; conditions: both partners purified
T2 construct: praja2 (PJA2), human, residues 550-610; The results call P1-P3 synthetic peptides; the methods describe recombinant GST fusions; also called P2; source: recombinant, purified (GST Trap, Superdex 75 gel filtration)
T2 sequence (looked up): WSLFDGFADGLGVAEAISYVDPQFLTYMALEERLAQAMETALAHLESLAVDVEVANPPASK

GST-praja2_(530–570) [2] = biological target: T3, GST-praja2_(530–570) (human, UniProt O43164 530-570, fluorescent dye on primary amines (NHS-ester labelling)); test: MST
T3 chain: T1 chain (looked up)

Kd (GST-praja2_(530–570) [1]): 37 µM
Kd (GST-praja2_(550–610)): 80 µM
B1: peptide of the C-terminus segment of TBC1D31 (peptide)
peptide: WDTTGQNLIKKVRNLRQRLTARARHRCQTPHLLAA
notes: TBC1D31, human, C-terminus segment; also called WA35 TBC1D31; wild-type TBC1D31 peptide; source: synthetic peptide (bought: Shanghai Apeptide Co., Ltd)

binding result (GST-praja2_(530–570) [1]): binds
Kd (GST-praja2_(530–570) [2]): ~65 µM
B2: double AA mutant TBC1D31 peptide (peptide)
peptide: B1 peptide with R13A, R16A
notes: TBC1D31, human, C-terminus segment peptide with R948A and R951A; also called TBC1D31AA; R948A-R951A; source: synthetic peptide (bought: Shanghai Apeptide Co., Ltd)
